Molecular target: T1, ACE2-Fc (LG chem) (human, UniProt Q9BYF1 18-740)
T1 construct: extracellular domain; also called ACE2-ED; extracellular domain of human Angiotensin Converting Enzyme 2 protein; not shown: Fc part of ACE2-Fc
Test: BLI (Octet QKe), ACE2-Fc captured on Protein A sensor, analyte at 100 ug/mL

T1 sequence (Q9BYF1 18-740): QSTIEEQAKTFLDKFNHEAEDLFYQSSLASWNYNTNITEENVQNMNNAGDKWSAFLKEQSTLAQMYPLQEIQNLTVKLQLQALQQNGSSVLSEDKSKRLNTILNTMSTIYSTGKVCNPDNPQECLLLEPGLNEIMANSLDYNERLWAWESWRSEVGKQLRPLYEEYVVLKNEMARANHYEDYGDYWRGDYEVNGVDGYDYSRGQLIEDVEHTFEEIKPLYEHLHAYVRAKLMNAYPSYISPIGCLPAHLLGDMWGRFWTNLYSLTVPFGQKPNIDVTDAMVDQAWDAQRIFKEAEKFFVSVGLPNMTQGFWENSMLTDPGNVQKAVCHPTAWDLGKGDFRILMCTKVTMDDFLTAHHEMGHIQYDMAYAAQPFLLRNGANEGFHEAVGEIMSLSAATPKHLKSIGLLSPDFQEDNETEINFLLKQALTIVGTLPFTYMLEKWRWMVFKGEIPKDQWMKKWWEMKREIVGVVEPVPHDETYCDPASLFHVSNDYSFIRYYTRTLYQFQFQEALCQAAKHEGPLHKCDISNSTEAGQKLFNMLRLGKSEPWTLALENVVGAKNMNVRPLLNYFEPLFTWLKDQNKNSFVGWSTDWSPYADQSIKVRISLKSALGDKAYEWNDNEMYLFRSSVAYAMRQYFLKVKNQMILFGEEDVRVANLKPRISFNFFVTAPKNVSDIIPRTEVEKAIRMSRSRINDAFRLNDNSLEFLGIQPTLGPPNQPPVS

B1: Hepatitis B surface antigen (HBsAg) VLP (other)
chain: MESTTSGFLGPLLVLQAGFFLLTRILTIPQSLDSWWTSLNFLGGAPTCPGQNSQSPTSNHSPTSCPPICPGYRWMCLRRFIIFLFILLLCLIFLLVLLDYQGMLPVCPLLPGTSTTSTGPCKTCTIPAQGTSMFPSCCCTKPSDGNCTCIPIPSSWAFARFLWEWASVRFSWLSLLVPFVQWFAGLSPTVWLSVIWMMWYWGPSLYNILSPFLPLLPIFFCLWVYI
notes: also called HBsAg1
ACE2 Binding activity: 0.24
